# Reference: PMC10030653, “ClpC2 protects mycobacteria against a natural antibiotic targeting ClpC1-dependent protein degradation” (Communications Biology, 2023)
# T1: ClpC2 WT (Mycobacterium tuberculosis, UniProt P9WPC7 1-252)
# T1 sequence: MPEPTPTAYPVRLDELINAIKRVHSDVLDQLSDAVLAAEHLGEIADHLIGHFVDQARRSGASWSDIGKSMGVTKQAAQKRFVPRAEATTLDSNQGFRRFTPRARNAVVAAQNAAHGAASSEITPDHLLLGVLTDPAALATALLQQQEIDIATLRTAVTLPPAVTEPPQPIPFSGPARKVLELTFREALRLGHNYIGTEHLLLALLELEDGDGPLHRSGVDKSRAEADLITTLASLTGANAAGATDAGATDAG
# B1: clpC2_FAM_EMSA 41 bp operator probe (dsDNA)
# DNA 1: ACAATGCATAACGTCAACCTACTGTTGACGTCATGCCGGAG
# DNA 2: CTCCGGCATGACGTCAACAGTAGGTTGACGTTATGCATTGT
# Columns and labels:
# [1] = target: cyclomarin A (Streptomyces sp. CNB-982); assay: ITC; 50 uM (monomer) ClpC1 NTD or ClpC2 titrated into 5 uM CymA at 37 C; 50 mM HEPES-KOH pH 7.5, 150 mM KCl, 9% DMSO, 1 mM EDTA; one-site binding model
# [2] = tested on: DNA probe containing the clpC2 operator site; assay: EMSA, ClpC1 binding to DNA
# ClpC1 NTD = settings: cited from earlier work
# ClpC1 = ClpC1 (Mycobacterium tuberculosis, UniProt P9WPC9 1-848); assay: EMSA; 1-25 uM ClpC1, 0.5 nM DNA; EMSA: 5 mM HEPES-KOH pH 7.5, 30 mM KCl, 1% glycerol, 10 mM MgCl2, room temperature 20 min, 12% polyacrylamide gel; settings: protein: recombinant; tags: untagged; label: 5'-FAM; blunt
# ClpC1, sequence (P9WPC9 whole entry): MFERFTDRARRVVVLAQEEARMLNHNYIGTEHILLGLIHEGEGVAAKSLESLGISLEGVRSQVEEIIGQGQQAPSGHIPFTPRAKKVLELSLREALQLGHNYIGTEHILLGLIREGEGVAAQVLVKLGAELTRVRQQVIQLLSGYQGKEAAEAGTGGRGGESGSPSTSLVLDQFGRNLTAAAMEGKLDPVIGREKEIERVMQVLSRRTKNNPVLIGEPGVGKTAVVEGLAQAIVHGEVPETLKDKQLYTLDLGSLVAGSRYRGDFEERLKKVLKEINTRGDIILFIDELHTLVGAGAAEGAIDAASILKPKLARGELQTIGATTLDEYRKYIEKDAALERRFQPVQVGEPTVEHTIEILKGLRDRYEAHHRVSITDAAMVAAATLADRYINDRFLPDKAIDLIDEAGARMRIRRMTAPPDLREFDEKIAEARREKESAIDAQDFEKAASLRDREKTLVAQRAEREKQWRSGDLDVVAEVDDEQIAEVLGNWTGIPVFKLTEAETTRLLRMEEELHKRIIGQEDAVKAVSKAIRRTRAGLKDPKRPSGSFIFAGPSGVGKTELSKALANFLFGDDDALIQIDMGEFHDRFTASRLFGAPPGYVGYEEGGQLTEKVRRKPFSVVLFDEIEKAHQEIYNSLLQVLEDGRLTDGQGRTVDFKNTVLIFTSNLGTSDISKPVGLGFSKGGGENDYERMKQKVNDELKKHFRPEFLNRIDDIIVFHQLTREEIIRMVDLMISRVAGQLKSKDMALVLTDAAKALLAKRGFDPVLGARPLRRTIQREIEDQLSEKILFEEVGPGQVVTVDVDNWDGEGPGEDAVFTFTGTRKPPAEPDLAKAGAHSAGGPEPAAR
# ClpC2 WT = target: T1, ClpC2 WT; assay: EMSA; 1-25 nM ClpC2, 0.5 nM DNA, no CymA; EMSA: 5 mM HEPES-KOH pH 7.5, 30 mM KCl, 1% glycerol, 10 mM MgCl2, room temperature 20 min, 12% polyacrylamide gel; settings: protein: recombinant; tags: untagged; chain copies: 2; label: 5'-FAM; blunt
molecule,measurement,setting,value
"ClpC1 N-terminal domain, residues 1-145 (ClpC1 NTD) (from UniProt P9WPC9 1-145) (domain or fragment)",Kd,[1],2.3 nM
"ClpC1: AAA+ chaperone ClpC1, purified Mtb protein",affinity of ClpC1 for DNA relative to ClpC2,[2]; EMSA,at least two orders of magnitude lower affinity than exhibited by ClpC2
same,sequence specificity of ClpC1 for clpC2 operator site,[2]; EMSA with unlabelled competitor DNA,little sequence specificity for the clpC2 operator site
same,"KD, ClpC1 to DNA","[2]; EMSA, 1-25 µM ClpC1, 0.5 nM DNA probe with clpC2 operator site",low micromolar range
"Mycobacterium tuberculosis ClpC2 (full length, wild type) (natural protein)",Kd,[1],2.2 nM
same,stoichiometry N,[1],1
ecumicin,target binding domain,ClpC1 NTD,specifically target ClpC1 NTD
lassomycin,target binding domain,ClpC1 NTD,specifically target ClpC1 NTD
B1,binding result,ClpC1,binds
same,binding result,ClpC2 WT,binds
